According to article PMC3315491:

The sequences below were run against T1, EspR (UniProt P9WJB7) (assay: EMSA).
T1 sequence: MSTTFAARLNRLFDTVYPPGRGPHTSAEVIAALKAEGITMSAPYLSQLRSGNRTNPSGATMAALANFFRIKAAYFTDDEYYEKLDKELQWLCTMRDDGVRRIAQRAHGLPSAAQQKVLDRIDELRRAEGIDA
“ACCTCAACGACAATTTGCCAGAGCTAGTCAGCGACATAGAAGACAAAACACTCCAATGGCATGATCGAGCTTAGCTATGCTCCGGATGTAGCTGGCCGAAGAT (double strand) [rv2929 peak probe]” was tested, and the binding was “binds”.
In the case of “ACTTGAGTTCTTCAGCAATGATGCATGCACGACTGTAGACCTGCGACCAAGTCAAGCTGTCAGCAAATCCCTTGGGGTCGGATCCGTAGTCGATGTACGTATATGCAGTGCTGTCAGGCT (double strand) [fadD26 peak probe]”, the binding is reported as “binds more weakly”.
For “GAAAACCGCCCCAGTTGCGGTGTGCGCTAGTTAACATCGCAACTACATATCAGCAAATCAGGGAGAGGAAACCGTGTCGTTTGTGTTGGTGTCTCCGTCGCA (double strand) [pe_pgrs19 peak probe]”, the binding was “binds”.
With “GCTCATCGATGTGACCTCCACCGGGCTCCAAGAGCAAACGGTTATCTGTATGTATTTGCTGATCATGGTAGCGACAGTTGTGTCCACAACCAAGTGCAAACCTGAGCGGATT (double strand) [espR peak a EMSA probe]” the binding was “binds”.
With “GCTTGTCCCAAAGCTCTTTCAGGCCGTTGAGCGCGTTTGTGATGAACTCCCACACTTCTCCGAGGGTGCCCTTGATGATGTCCGCCACATCCGAAATGAT (double strand) [espA ORF negative control probe]” the binding was “no binding”.
In the case of “TCAGGATGACCGTGTCGGGCGGATGCGGCCGACTCCGGGCAACCAGCAGCCAACGGAGATTCGCCGAGAGCCTCCTTTGCTGCCTGGGTCCGCACAGCGCTCGTCAGGCGA (double strand) [espR peak b EMSA probe]”, the binding is reported as “binds”.
“TGCGTCGGTTAGTCTCTTTTTCGACCTTGGGGCGCGGAGGGTCGTTATGGTGTGTCACAGTGCTTTGCTGTCAAAGGCATTGGCGGTGCCGACCAAGCGACACT (double strand) [rv1490 peak probe]” was tested, and the binding was “binds”.
